According to patent publication US20150217006A1, “AL-F-18-LABELED, AL-F-19-LABELED AND GA-68-LABELED GASTRIN-RELEASING PEPTIDE RECEPTOR (GRPR)-ANTAGONISTS FOR IMAGING OF PROSTATE CANCER” (Immunomedics, Inc., priority 2014, published 2015):
pIC50: −log10 of the molar value.

Molecular target: gastrin-releasing peptide receptor (GRPR) (human) (UniProt P30550)
Assay: competition with 125I-BBN on PC-3 cells, repeat experiment, inhibitor 250 to 2 nM

Sequence of gastrin-releasing peptide receptor (GRPR) (human) (P30550 whole entry): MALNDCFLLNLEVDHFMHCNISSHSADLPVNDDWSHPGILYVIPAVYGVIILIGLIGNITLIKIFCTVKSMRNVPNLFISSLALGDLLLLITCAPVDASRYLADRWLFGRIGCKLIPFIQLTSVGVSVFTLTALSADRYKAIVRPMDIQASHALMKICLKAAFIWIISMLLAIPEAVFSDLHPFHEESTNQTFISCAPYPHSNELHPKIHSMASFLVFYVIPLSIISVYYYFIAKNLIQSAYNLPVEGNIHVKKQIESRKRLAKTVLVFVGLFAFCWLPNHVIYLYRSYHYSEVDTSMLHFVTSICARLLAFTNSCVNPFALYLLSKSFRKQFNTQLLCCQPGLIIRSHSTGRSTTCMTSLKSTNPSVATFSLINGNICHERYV

commercially available BBN peptide showed a pIC50 of 7.61.
